Consider seven molecules from patent publication US7786071B2 (priority 2003, dated 2010).

For orientation: Km means the concentration of substrate that gives half-maximal velocity. For orientation: Kd means the concentration at which binding is half-saturated.

Where two headings read alike, the source gives them in different places.

Series [1] is classed as biochemical. To be noted: read-out: KM for L-Hcy hydrolysis.
Series [2] is classed as biochemical.
Series [3] is classed as biochemical. Particulars: read-out: 2-Naphthyl acetate KM.
The format of series [4] is biochemical. Particulars: read-out: Dihydrocoumarin KM.
Series [5] is classed as biochemical. Particulars: pH 8; for Km: read-out: KM(Paraoxon).
The format of series [6] is biochemical. The source holds these as a separate data set.
The format of series [7] is biochemical. To be noted: read-out: DEPCyC hydrolysis KM.
The conditions of series [8]: read-out: Kd for the first (higher affinity) calcium; cited from earlier work.
For series [9] the following is noted: read-out: KM(Paraoxon); cited from earlier work.
The conditions of series [10]: read-out: KM(PheAc); cited from earlier work.
The conditions of series [11]: read-out: KM for L-HcyT hydrolysis; cited from earlier work.
The mark [12] stands for this setting: read-out: Phenylacetate hydrolysis KM.

B1: G3H8: third-round rPON1 variant, unmodified 355 aa protein without tags; SEQ ID NO: 29 (DNA), 61 (protein) (protein)
chain: MAKLTAPTLLGLGLALFDRQKSSFQTRFNVHREVTPVELPNCNLVKGIDNGSEDLEILPNGLAFISSGLKYPGIMSFDPDKSGKILLMDLNEEDPVVLELGITGSTFDLSSFNPHGISTFTDEDNTVYLLVVNHPDSSSTVEVFKFQEKERSLLHLKTIRHKLLPSVNDIVAVGPESFYATNDHYFADPYLKSWEMHLGLAWSFVTYYSPNDVRVVAEGFDFANGINISPDGKYVYIAELLAHKIHVYEKHANWTLTPLKSLDFNTLVDNISVDPVTGDLWVGCHPNGMRIFYYDPENPPGSEVLRIQDILSKEPKVTVVYAENGTVLQGSTVAAVYKGKLLIGTVFHKALYCDL
modifications: In vitro evolved PON variant G3H8
Take B1: the Michaelis-Menten constant (Km) was approximately 19000 µM in [1]; 320 µM in series [2] (pH 8, read-out: KM(PheAc)); 110 µM in series [3]; 76 µM in [4]; 88 µM in series [5]. The “kcat (PheAc)” value in [2] (pH 8) is 1018 s⁻¹. For the same molecule, the “kcat(Paraoxon)” value in series [5] is 1.2 s⁻¹.

B2: 7HY: G3C9-derived PON1 variant, mutations F292V, Y293D, I109M; SEQ ID NO: 74, 75 (protein)
chain: MAKLTALTLLGLGLALFDGQKSSFQTRFNVHREVTPVELPNCNLVKGVDNGSEDLEILPNGLAFISSGLKYPGIMSFDPDKSGKILLMDLNEEDPVVLELGITGNTLDMSSFNPHGISTFTDEDNTVYLLVVNHPDSSSTVEVFKFQEEEKSLLHLKTIRHKLLPSVNDIVAVGPEHFYATNDHYFADPYLKSWEMHLGLAWSFVTYYSPNDVRVVAEGFDFANGINISPDGKYVYIAELLAHKIHVYEKHANWTLTPLKSLDFDTLVDNISVDPVTGDLWVGCHPNGMRIVDYDPKNPPGSEVLRIQDILSEEPKVTVVYAENGTVLQGSTVAAVYKGKLLIGTVFHKALYCEL
modifications: In vitro evolved PON variant 7HY
Take B2: the “shift in substrate selectivity” value in [6] is “up to 4,600 fold”.

B3: G3C9: third-round highly soluble rPON1 variant without tags, wt-like activity; SEQ ID NO: 55 (DNA), 56 (protein) (protein)
chain: MAKLTALTLLGLGLALFDGQKSSFQTRFNVHREVTPVELPNCNLVKGVDNGSEDLEILPNGLAFISSGLKYPGIMSFDPDKSGKILLMDLNEEDPVVLELGITGNTLDISSFNPHGISTFTDEDNTVYLLVVNHPDSSSTVEVFKFQEEEKSLLHLKTIRHKLLPSVNDIVAVGPEHFYATNDHYFADPYLKSWEMHLGLAWSFVTYYSPNDVRVVAEGFDFANGINISPDGKYVYIAELLAHKIHVYEKHANWTLTPLKSLDFDTLVDNISVDPVTGDLWVGCHPNGMRIFYYDPKNPPGSEVLRIQDILSEEPKVTVVYAENGTVLQGSTVAAVYKGKLLIGTVFHKALYCEL
modifications: In vitro evolved PON variant G3C9
With B3, in series [2] (pH 8), the “kcat (PheAc)” value was 789 s⁻¹. Moreover, the Km in series [2] (pH 8, read-out: KM(PheAc)) stood at 330 µM; in series [2] (setting [12]), 330 µM; in series [5] it was 94 µM; in series [7] it was 70 µM. The “kcat(Paraoxon)” value in [5] amounted to 1.1 s⁻¹.

B4: G3C9.49: G3C9 variant with mutations G19R, S193P, N287D and V346A; SEQ ID NO: 64, 65 (protein)
chain: MAKLTALTLLGLGLALFDRQKSSFQTRFNVHREVTPVELPNCNLVKGVDNGSEDLEILPNGLAFISSGLKYPGIMSFDPDKSGKILLMDLNEEDPVVLELGITGNTLDISSFNPHGISTFTDEDNTVYLLVVNHPDSSSTVEVFKFQEEEKSLLHLKTIRHKLLPSVNDIVAVGPEHFYATNDHYFADPYLKPWEMHLGLAWSFVTYYSPNDVRVVAEGFDFANGINISPDGKYVYIAELLAHKIHVYEKHANWTLTPLKSLDFDTLVDNISVDPVTGDLWVGCHPDGMRIFYYDPKNPPGSEVLRIQDILSEEPKVTVVYAENGTVLQGSTVAAVYKGKLLIGTAFHKALYCEL
modifications: In vitro evolved PON variant G3C9.49
With B4, the Km in series [2] (setting [12]) came out at 300 µM; in series [7], 80 µM.

B5: RabPON1: wild-type rabbit PON1, GenBank Accession No. AF220943 (protein, listed as Rattus norvegicus)
chain: MAKLLGLTLVGLVLALYKNHRSSYQTRLNAFREVTPVDLPNCTLVKGIEAGAEDLEILPNGLTFFSTGLKYPGIKSFDPSKPGKILLMDLNEKEPAVSELAIMGNTLDMSSFNPHGISTFIDEDNTVYLLVVSHPDSSSTVEVFKFQEEERSLLHLKTITHELLPSINDIAAVGPESFYATNDHYFADPYLRSWEMYLGLSWSNVVYYSPDKVRVVADGFDFANGIGISLDGKYVYIAELLAHKIHVYEKHANWTLTPLKVLSFDTLVDNISVDPVTGDLWVGCHPNGMRIFFYDSENPPGSEVLRIQSILSEDPKVTVVYAENGTVLQGTTVAAVYKGKLLIGTVFHRALCCDL
In the case of B5, the Kd in series [8] was 50 nM.

B6: G1A5: first-round directly evolved PON1 variant, thioredoxin-fused; SEQ ID NO: 25 (DNA), 57 (protein) (protein)
chain: MAKLTALTLLGLGLALFDGQKSSFQTRFNVHREVTPVELPNCNLVKGIDNGSEDLEILPNGLAFISSGLKYPGIMSFDPDKSGKILLMDLNEEDPVVLELGITGNTLDISSFNPHGISTFIDEDNTVYLLVVNHPDSSSTVEVFKFQEKEKSLLHLKTIRHKLLPSVNDIVAVGPEHFYATNDHYFIDPYLKSWEMHLGLAWSFVTYYSPNDVRVVAEGFDFANGINISPDGKYVYIAELLAHKIHVYEKHANWTLTPLKSLDFNTLVDNISVDPVTGDLWVGCHPNGMRIFYYDPENPPGSEVLRIQNILSKEPKVTVVYAENGTVLQGTTVASVYKGKLLIGTVFHKALYCEL
modifications: thioredoxin-fused; In vitro evolved PON variant G1A5
Take B6: in [2] (pH 8), the “kcat (PheAc)” value was determined as 833 s⁻¹. The Km came out at 390 µM in [2] (pH 8, read-out: KM(PheAc)); 80 µM in series [3]; 120 µM in series [4]; 85 µM in [5]. For the same molecule, the “kcat(Paraoxon)” value in [5] turned out to be 1.16 s⁻¹.

B7: hPON1: wild-type human PON1; kinetic values for enzyme purified from sera; SEQ ID NO: 24, 36 (protein, listed as Homo sapiens)
chain: MAKLIALTLLGMGLALFRNHQSSYQTRLNALREVQPVELPNCNLVKGIETGSEDLEILPNGLAFISSGLKYPGIKSFNPNSPGKILLMDLNEEDPTVLELGITGSKFDVSSFNPHGISTFTDEDNAMYLLVVNHPDAKSTVELFKFQEEEKSLLHLKTIRHKLLPNLNDIVAVGPEHFYGTNDHYFLDPYLQSWEMYLGLAWSYVVYYSPSEVRVVAEGFDFANGINISPDGKYVYIAELLAHKIHVYEKHANWTLTPLKSLDFNTLVDNISVDPETGDLWVGCHPNGMKIFFYDSENPPASEVLRIQNILTEEPKVTQVYAENGTVLQGSTVASVYKGKLLIGTVFHKALYCEL
Regarding B7, in series [8], the Kd is 360 nM. Moreover, the Michaelis-Menten constant (Km) in [9] is 540 µM; in [10] it was 420 µM; in series [11] it was 23000 µM.
